These results are taken from US8133978.

Test [1] addresses Human interleukin-18 (recombinant human IL-18) (human) (UniProt Q14116). The experiment in a line: cell-based or functional assay.
The target is the same in test [2]. Briefly: ELISA, IL-18 bp-Fc coated at 0.5 ug/ml, human IL-18 added at 100 ng/ml, antibody titrated, detection anti-rat IgG HRP, Abs 490 nm.

Chain of Human interleukin-18 (recombinant human IL-18) (human) (Q14116 37-193 limits assumed): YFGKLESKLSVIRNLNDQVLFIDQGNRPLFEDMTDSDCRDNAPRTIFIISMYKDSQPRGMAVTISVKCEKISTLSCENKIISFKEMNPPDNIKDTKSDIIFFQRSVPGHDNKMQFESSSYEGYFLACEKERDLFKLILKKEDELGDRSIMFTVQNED

B1: Parental rat antibody 2C10 (antibody, from another filing, V domains shown)
VH: EVQLQQSGAELVRPGTSVKLSCKVSGEISTGYYFHFVRRRPGQGLEWIGRIDPEDDSTKYAERFKDRATLTAQTSSNTAYLNLSSLTSEDTATYFCTTWRIYRDSSGRPFYVMDAWGQGASVTVSS
VL: DIQMTQSPASLSASLGETVSIECLASEDIYTYLTWYQQKPGKSPQLLIYGANKLQDGVPSRFSGSGSGTQYSLKISGIQPEDEGDYFCLQGSKFPLTFGSGTKLEIKR
B1: in test [1], the IC50, LPS-stimulated IFNγ release, human PBMC, Donor 1 10% serum is 0.023; the IC50, LPS-stimulated IFNγ release, human PBMC, Donor 1 25% serum worked out at 0.069; the IC50, LPS-stimulated IFNγ release, human PBMC, Donor 3 10% serum was 0.033; the IC50, LPS-stimulated IFNγ release, human PBMC, Donor 3 25% serum amounted to 0.086. Further, in test [1], the complete inhibition of IL-18 mediated IFNγ release, LPS-stimulated human PBMC, 10% or 25% human serum was over 1 µg/mL and the inhibition of LPS-induced IFNγ production in human PBMC was determined as 1 µg/mL. Also, the EC50 (read off the curve) in test [2] was 0.04 µg/mL.
